In patent CN115611981A (GENOR BIOPHARMA CO LTD, dated 2023):

Target: T1, PD-1 (UniProt Q15116 25-288, limits assumed)
T1 construct: whole, on cells; also called Jurkat/PD-1细胞表面的PD-1; Jurkat/PD1
Experiment: Jurkat/PD-1 + CHO/PD-L1 NFAT-luciferase reporter blockade assay (binding inferred)

T1 sequence (Q15116 25-288 limits assumed): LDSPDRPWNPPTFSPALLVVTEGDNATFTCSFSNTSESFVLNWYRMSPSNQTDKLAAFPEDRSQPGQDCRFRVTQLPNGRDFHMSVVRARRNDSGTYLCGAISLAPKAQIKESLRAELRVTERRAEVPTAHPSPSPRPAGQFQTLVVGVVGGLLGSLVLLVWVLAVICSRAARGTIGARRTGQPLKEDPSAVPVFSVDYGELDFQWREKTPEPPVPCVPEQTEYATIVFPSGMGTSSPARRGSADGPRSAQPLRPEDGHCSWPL

binding result: binds
B1: G-Ab1 (antibody, human IgG4 S228P, kappa, V domains shown)
VH: QIQLVQSGSELKKPGASVKVSCKASGYTFTNFGMNWVRQAPGQGLKWMGWISGYTREPTYAADFKGRFVISLDTSVSTAYLQISSLKAEDTAVYYCARDVFDYWGQGTLVTVSS
VL: DIVLTQSPASLAVSPGQRATITCRASESVDNYGYSFMNWFQQKPGQPPKLLIYRASNLESGVPARFSGSGSRTDFTLTINPVEADDTANYYCQQSNADPTFGQGTKLEIKR
notes: The control used was an IgG4 isotype control; also called 抗PD-1抗体; G-Ab1抗体
